Starred links: 1 amine or outer side, 2 acyl side, 3 side chain; linkers in the order of their positions; H or OH if unused. Non-standard residues stand in square brackets, D forms with d. Groups on a side chain read outwards from the residue. No end group written: not given here. *: point of attachment. Trp(5-Br) = N[C@@H](Cc1c[nH]c2ccc(Br)cc12)C(=O)O; Bip = N[C@@H](Cc1ccc(-c2ccccc2)cc1)C(=O)O; C18 diacid = O=C(O)CCCCCCCCCCCCCCCCC(=O)*; γGlu = O=C(O)[C@H](CCC(=O)[*:2])N[*:1]; αMeF = C[C@](N)(Cc1ccccc1)C(=O)O; AEEA = NCCOCCOCC(=O)O; Aib = CC(C)(N)C(=O)O
B1: Peptide 431 (peptide)
peptide: H[Aib]QGTFTSDVSK[αMeF]LDTK([AEEA-AEEA-γGlu-γGlu-C18 diacid])RAQDFVAWLEA[Aib]G-NH2
modifications: N-terminus assumed
SMILES: CC(C)C[C@H](NC(=O)[C@H](Cc1c[nH]c2ccccc12)NC(=O)[C@H](C)NC(=O)[C@@H](NC(=O)[C@H](Cc1ccccc1)NC(=O)[C@H](CC(=O)O)NC(=O)[C@H](CCC(N)=O)NC(=O)[C@H](C)NC(=O)[C@H](CCCNC(=N)N)NC(=O)[C@H](CCCCNC(=O)COCCOCCNC(=O)COCCOCCNC(=O)CC[C@H](NC(=O)CC[C@H](NC(=O)CCCCCCCCCCCCCCCCC(=O)O)C(=O)O)C(=O)O)NC(=O)[C@@H](NC(=O)[C@H](CC(=O)O)NC(=O)[C@H](CC(C)C)NC(=O)[C@](C)(Cc1ccccc1)NC(=O)[C@H](CCCCN)NC(=O)[C@H](CO)NC(=O)[C@@H](NC(=O)[C@H](CC(=O)O)NC(=O)[C@H](CO)NC(=O)[C@@H](NC(=O)[C@H](Cc1ccccc1)NC(=O)[C@@H](NC(=O)CNC(=O)[C@H](CCC(N)=O)NC(=O)C(C)(C)NC(=O)[C@@H](N)Cc1c[nH]cn1)[C@@H](C)O)[C@@H](C)O)C(C)C)[C@@H](C)O)C(C)C)C(=O)N[C@@H](CCC(=O)O)C(=O)N[C@@H](C)C(=O)NC(C)(C)C(=O)NCC(N)=O
B2: Peptide 427 (peptide)
peptide: H[Aib]QGTFTSDVSK[αMeF]LDTK([AEEA-AEEA-γGlu-C18 diacid])RARDFVQWLLE[Aib]G-NH2
modifications: N-terminus assumed
SMILES: CC(C)C[C@H](NC(=O)[C@H](Cc1c[nH]c2ccccc12)NC(=O)[C@H](CCC(N)=O)NC(=O)[C@@H](NC(=O)[C@H](Cc1ccccc1)NC(=O)[C@H](CC(=O)O)NC(=O)[C@H](CCCNC(=N)N)NC(=O)[C@H](C)NC(=O)[C@H](CCCNC(=N)N)NC(=O)[C@H](CCCCNC(=O)COCCOCCNC(=O)COCCOCCNC(=O)CC[C@H](NC(=O)CCCCCCCCCCCCCCCCC(=O)O)C(=O)O)NC(=O)[C@@H](NC(=O)[C@H](CC(=O)O)NC(=O)[C@H](CC(C)C)NC(=O)[C@](C)(Cc1ccccc1)NC(=O)[C@H](CCCCN)NC(=O)[C@H](CO)NC(=O)[C@@H](NC(=O)[C@H](CC(=O)O)NC(=O)[C@H](CO)NC(=O)[C@@H](NC(=O)[C@H](Cc1ccccc1)NC(=O)[C@@H](NC(=O)CNC(=O)[C@H](CCC(N)=O)NC(=O)C(C)(C)NC(=O)[C@@H](N)Cc1c[nH]cn1)[C@@H](C)O)[C@@H](C)O)C(C)C)[C@@H](C)O)C(C)C)C(=O)N[C@@H](CC(C)C)C(=O)N[C@@H](CCC(=O)O)C(=O)NC(C)(C)C(=O)NCC(N)=O
B3: Peptide 432 (peptide)
peptide: H[Aib]QGTFTSDVSK[αMeF]LDSK([AEEA-AEEA-γGlu-C18 diacid])RAQDFVR[Bip]LL[Aib]E-OH
modifications: N-terminus assumed
SMILES: CC(C)C[C@H](NC(=O)[C@H](Cc1ccc(-c2ccccc2)cc1)NC(=O)[C@H](CCCNC(=N)N)NC(=O)[C@@H](NC(=O)[C@H](Cc1ccccc1)NC(=O)[C@H](CC(=O)O)NC(=O)[C@H](CCC(N)=O)NC(=O)[C@H](C)NC(=O)[C@H](CCCNC(=N)N)NC(=O)[C@H](CCCCNC(=O)COCCOCCNC(=O)COCCOCCNC(=O)CC[C@H](NC(=O)CCCCCCCCCCCCCCCCC(=O)O)C(=O)O)NC(=O)[C@H](CO)NC(=O)[C@H](CC(=O)O)NC(=O)[C@H](CC(C)C)NC(=O)[C@](C)(Cc1ccccc1)NC(=O)[C@H](CCCCN)NC(=O)[C@H](CO)NC(=O)[C@@H](NC(=O)[C@H](CC(=O)O)NC(=O)[C@H](CO)NC(=O)[C@@H](NC(=O)[C@H](Cc1ccccc1)NC(=O)[C@@H](NC(=O)CNC(=O)[C@H](CCC(N)=O)NC(=O)C(C)(C)NC(=O)[C@@H](N)Cc1c[nH]cn1)[C@@H](C)O)[C@@H](C)O)C(C)C)C(C)C)C(=O)N[C@@H](CC(C)C)C(=O)NC(C)(C)C(=O)N[C@@H](CCC(=O)O)C(=O)O
B4: Peptide 434 (peptide)
peptide: H[Aib]QGTFTSDVSK[αMeF]LDSK([AEEA-AEEA-γGlu-C18 diacid])RAQDFVR[Trp(5-Br)]LL[Aib]E-OH
modifications: N-terminus assumed
SMILES: CC(C)C[C@H](NC(=O)[C@H](Cc1c[nH]c2ccc(Br)cc12)NC(=O)[C@H](CCCNC(=N)N)NC(=O)[C@@H](NC(=O)[C@H](Cc1ccccc1)NC(=O)[C@H](CC(=O)O)NC(=O)[C@H](CCC(N)=O)NC(=O)[C@H](C)NC(=O)[C@H](CCCNC(=N)N)NC(=O)[C@H](CCCCNC(=O)COCCOCCNC(=O)COCCOCCNC(=O)CC[C@H](NC(=O)CCCCCCCCCCCCCCCCC(=O)O)C(=O)O)NC(=O)[C@H](CO)NC(=O)[C@H](CC(=O)O)NC(=O)[C@H](CC(C)C)NC(=O)[C@](C)(Cc1ccccc1)NC(=O)[C@H](CCCCN)NC(=O)[C@H](CO)NC(=O)[C@@H](NC(=O)[C@H](CC(=O)O)NC(=O)[C@H](CO)NC(=O)[C@@H](NC(=O)[C@H](Cc1ccccc1)NC(=O)[C@@H](NC(=O)CNC(=O)[C@H](CCC(N)=O)NC(=O)C(C)(C)NC(=O)[C@@H](N)Cc1c[nH]cn1)[C@@H](C)O)[C@@H](C)O)C(C)C)C(C)C)C(=O)N[C@@H](CC(C)C)C(=O)NC(C)(C)C(=O)N[C@@H](CCC(=O)O)C(=O)O
B5: Peptide 428 (peptide)
peptide: H[Aib]QGTFTSDVSK[αMeF]LDTK([AEEA-AEEA-γGlu-γGlu-C18 diacid])RARDFVQWLLE[Aib]G-NH2
modifications: N-terminus assumed
SMILES: CC(C)C[C@H](NC(=O)[C@H](Cc1c[nH]c2ccccc12)NC(=O)[C@H](CCC(N)=O)NC(=O)[C@@H](NC(=O)[C@H](Cc1ccccc1)NC(=O)[C@H](CC(=O)O)NC(=O)[C@H](CCCNC(=N)N)NC(=O)[C@H](C)NC(=O)[C@H](CCCNC(=N)N)NC(=O)[C@H](CCCCNC(=O)COCCOCCNC(=O)COCCOCCNC(=O)CC[C@H](NC(=O)CC[C@H](NC(=O)CCCCCCCCCCCCCCCCC(=O)O)C(=O)O)C(=O)O)NC(=O)[C@@H](NC(=O)[C@H](CC(=O)O)NC(=O)[C@H](CC(C)C)NC(=O)[C@](C)(Cc1ccccc1)NC(=O)[C@H](CCCCN)NC(=O)[C@H](CO)NC(=O)[C@@H](NC(=O)[C@H](CC(=O)O)NC(=O)[C@H](CO)NC(=O)[C@@H](NC(=O)[C@H](Cc1ccccc1)NC(=O)[C@@H](NC(=O)CNC(=O)[C@H](CCC(N)=O)NC(=O)C(C)(C)NC(=O)[C@@H](N)Cc1c[nH]cn1)[C@@H](C)O)[C@@H](C)O)C(C)C)[C@@H](C)O)C(C)C)C(=O)N[C@@H](CC(C)C)C(=O)N[C@@H](CCC(=O)O)C(=O)NC(C)(C)C(=O)NCC(N)=O
B6: Peptide 429 (peptide)
peptide: H[Aib]QGTFTSDVSK[αMeF]LDSK([AEEA-AEEA-γGlu-C18 diacid])RAQDFVRWLEA[Aib]G-NH2
modifications: N-terminus assumed
SMILES: CC(C)C[C@H](NC(=O)[C@H](Cc1c[nH]c2ccccc12)NC(=O)[C@H](CCCNC(=N)N)NC(=O)[C@@H](NC(=O)[C@H](Cc1ccccc1)NC(=O)[C@H](CC(=O)O)NC(=O)[C@H](CCC(N)=O)NC(=O)[C@H](C)NC(=O)[C@H](CCCNC(=N)N)NC(=O)[C@H](CCCCNC(=O)COCCOCCNC(=O)COCCOCCNC(=O)CC[C@H](NC(=O)CCCCCCCCCCCCCCCCC(=O)O)C(=O)O)NC(=O)[C@H](CO)NC(=O)[C@H](CC(=O)O)NC(=O)[C@H](CC(C)C)NC(=O)[C@](C)(Cc1ccccc1)NC(=O)[C@H](CCCCN)NC(=O)[C@H](CO)NC(=O)[C@@H](NC(=O)[C@H](CC(=O)O)NC(=O)[C@H](CO)NC(=O)[C@@H](NC(=O)[C@H](Cc1ccccc1)NC(=O)[C@@H](NC(=O)CNC(=O)[C@H](CCC(N)=O)NC(=O)C(C)(C)NC(=O)[C@@H](N)Cc1c[nH]cn1)[C@@H](C)O)[C@@H](C)O)C(C)C)C(C)C)C(=O)N[C@@H](CCC(=O)O)C(=O)N[C@@H](C)C(=O)NC(C)(C)C(=O)NCC(N)=O
B7: Peptide 430 (peptide)
peptide: H[Aib]QGTFTSDVSK[αMeF]LDSK([AEEA-AEEA-γGlu-γGlu-C18 diacid])RAQDFVRWLEA[Aib]G-NH2
modifications: N-terminus assumed
SMILES: CC(C)C[C@H](NC(=O)[C@H](Cc1c[nH]c2ccccc12)NC(=O)[C@H](CCCNC(=N)N)NC(=O)[C@@H](NC(=O)[C@H](Cc1ccccc1)NC(=O)[C@H](CC(=O)O)NC(=O)[C@H](CCC(N)=O)NC(=O)[C@H](C)NC(=O)[C@H](CCCNC(=N)N)NC(=O)[C@H](CCCCNC(=O)COCCOCCNC(=O)COCCOCCNC(=O)CC[C@H](NC(=O)CC[C@H](NC(=O)CCCCCCCCCCCCCCCCC(=O)O)C(=O)O)C(=O)O)NC(=O)[C@H](CO)NC(=O)[C@H](CC(=O)O)NC(=O)[C@H](CC(C)C)NC(=O)[C@](C)(Cc1ccccc1)NC(=O)[C@H](CCCCN)NC(=O)[C@H](CO)NC(=O)[C@@H](NC(=O)[C@H](CC(=O)O)NC(=O)[C@H](CO)NC(=O)[C@@H](NC(=O)[C@H](Cc1ccccc1)NC(=O)[C@@H](NC(=O)CNC(=O)[C@H](CCC(N)=O)NC(=O)C(C)(C)NC(=O)[C@@H](N)Cc1c[nH]cn1)[C@@H](C)O)[C@@H](C)O)C(C)C)C(C)C)C(=O)N[C@@H](CCC(=O)O)C(=O)N[C@@H](C)C(=O)NC(C)(C)C(=O)NCC(N)=O

Biological target: human GLP-1 receptor (human, UniProt P43220)
Experiment: cell-based or functional assay

| Binder | cAMP production EC50 [nM] |
| --- | --- |
| B1 | 0.0446 |
| B2 | 0.0124 |
| B3 | 1.38 |
| B4 | 0.153 |
| B5 | 0.0331 |
| B6 | 0.015 |
| B7 | 0.0244 |

Biological target: human glucagon receptor (human, UniProt P47871)
Experiment: cell-based or functional assay

| Binder | cAMP production EC50 [nM] |
| --- | --- |
| B1 | 0.194 |
| B2 | 0.0472 |
| B3 | 1.16 |
| B4 | 0.294 |
| B5 | 0.0105 |
| B6 | 0.144 |
| B7 | 0.16 |

From patent US12630600B2 (MEDIMMUNE LIMITED, priority 2022, dated 2026)
